Measured values taken from PMC9468356, “Kinetic compartmentalization by unnatural reaction for itaconate production” (Nature Communications, 2022).

B1: PrpD (Escherichia coli K-12; G111T/W110V) (protein)
chain: SAQINNIRPEFDREIVDIVDYVMNYEISSKVAYDTAHYCLLDTLGCGLEALEYPACKKLLGPIVPGTVVPNGVRVPGTQFQLDPVQAAFNIGAMIRWLDFNDTWLAAEVTHPSDNLGGILATADWLSRNAVASGKAPLTMKQVLTAMIKAHEIQGCIALENSFNRVGLDHVLLVKVASTAVVAEMLGLTREEILNAVSLAWVDGQSLRTYRHAPNTGTRKSWAAGDATSRAVRLALMAKTGEMGYPSALTAPVWGFYDVSFKGESFRFQRPYGSYVMENVLFKISFPAEFHSQTAVEAAMTLYEQMQAAGKTAADIEKVTIRTHEACIRIIDKKGPLNNPADRDHCIQYMVAIPLLFGRLTAADYEDNVAQDKRIDALREKINCFEDPAFTADYHDPEKRAIANAITLEFTDGTRFEEVVVEYPIGHARRRQDGIPKLVDKFKINLARQFPTRQQQRILEVSLDRARLEQMPVNEYLDLYVI
notes: 6xHis-tagged, cloned from E. coli W into pACYCduet-1, purified anaerobically by His-tag kit
B2: PrpD (Escherichia coli K-12; G111T/I331L/W110V) (protein)
chain: SAQINNIRPEFDREIVDIVDYVMNYEISSKVAYDTAHYCLLDTLGCGLEALEYPACKKLLGPIVPGTVVPNGVRVPGTQFQLDPVQAAFNIGAMIRWLDFNDTWLAAEVTHPSDNLGGILATADWLSRNAVASGKAPLTMKQVLTAMIKAHEIQGCIALENSFNRVGLDHVLLVKVASTAVVAEMLGLTREEILNAVSLAWVDGQSLRTYRHAPNTGTRKSWAAGDATSRAVRLALMAKTGEMGYPSALTAPVWGFYDVSFKGESFRFQRPYGSYVMENVLFKISFPAEFHSQTAVEAAMTLYEQMQAAGKTAADIEKVTIRTHEACIRLIDKKGPLNNPADRDHCIQYMVAIPLLFGRLTAADYEDNVAQDKRIDALREKINCFEDPAFTADYHDPEKRAIANAITLEFTDGTRFEEVVVEYPIGHARRRQDGIPKLVDKFKINLARQFPTRQQQRILEVSLDRARLEQMPVNEYLDLYVI
notes: as for B1
B3: PrpD (Escherichia coli K-12) (protein)
chain: SAQINNIRPEFDREIVDIVDYVMNYEISSKVAYDTAHYCLLDTLGCGLEALEYPACKKLLGPIVPGTVVPNGVRVPGTQFQLDPVQAAFNIGAMIRWLDFNDTWLAAEWGHPSDNLGGILATADWLSRNAVASGKAPLTMKQVLTAMIKAHEIQGCIALENSFNRVGLDHVLLVKVASTAVVAEMLGLTREEILNAVSLAWVDGQSLRTYRHAPNTGTRKSWAAGDATSRAVRLALMAKTGEMGYPSALTAPVWGFYDVSFKGESFRFQRPYGSYVMENVLFKISFPAEFHSQTAVEAAMTLYEQMQAAGKTAADIEKVTIRTHEACIRIIDKKGPLNNPADRDHCIQYMVAIPLLFGRLTAADYEDNVAQDKRIDALREKINCFEDPAFTADYHDPEKRAIANAITLEFTDGTRFEEVVVEYPIGHARRRQDGIPKLVDKFKINLARQFPTRQQQRILEVSLDRARLEQMPVNEYLDLYVI
notes: as for B1
B4: PrpD (Escherichia coli K-12; I331L/W110V) (protein)
chain: SAQINNIRPEFDREIVDIVDYVMNYEISSKVAYDTAHYCLLDTLGCGLEALEYPACKKLLGPIVPGTVVPNGVRVPGTQFQLDPVQAAFNIGAMIRWLDFNDTWLAAEVGHPSDNLGGILATADWLSRNAVASGKAPLTMKQVLTAMIKAHEIQGCIALENSFNRVGLDHVLLVKVASTAVVAEMLGLTREEILNAVSLAWVDGQSLRTYRHAPNTGTRKSWAAGDATSRAVRLALMAKTGEMGYPSALTAPVWGFYDVSFKGESFRFQRPYGSYVMENVLFKISFPAEFHSQTAVEAAMTLYEQMQAAGKTAADIEKVTIRTHEACIRLIDKKGPLNNPADRDHCIQYMVAIPLLFGRLTAADYEDNVAQDKRIDALREKINCFEDPAFTADYHDPEKRAIANAITLEFTDGTRFEEVVVEYPIGHARRRQDGIPKLVDKFKINLARQFPTRQQQRILEVSLDRARLEQMPVNEYLDLYVI
notes: as for B1

Legend:
HPLC end-point assay [1] = substrate: O=C(O)/C=C(/CC(=O)O)C(=O)O; test: HPLC end-point assay; assay type: biochemical, Escherichia coli; settings: 2 mM Tris-HCl, 37 °C, 10 min, 0.05-1.0 mM substrate
Source text: (§1) HPLC end-point assay on PrpD

HPLC end-point assay [2] = substrate: CC(C(=O)O)C(O)(CC(=O)O)C(=O)O; test: HPLC end-point assay; assay type: biochemical, Escherichia coli; settings: 2 mM Tris-HCl, 37 °C, 10 min, 0.1-1 mM substrate
Source text: as §1

Row | Protein | Km (HPLC end-point assay [1]) | kcat (HPLC end-point assay [1]) | kcat/Km (HPLC end-point assay [1]) | Km (HPLC end-point assay [2]) | kcat (HPLC end-point assay [2]) | kcat/Km (HPLC end-point assay [2])
1 | B1 | 1720 ± 250 µM | 172 ± 20 s⁻¹ | 101000 ± 3180 M⁻¹ s⁻¹ | 1930 ± 210 µM | 0.023 ± 0.008 s⁻¹ | 12 ± 6 M⁻¹ s⁻¹
2 | B2 | 720 ± 100 µM | 81.8 ± 14.1 s⁻¹ | 114000 ± 14600 M⁻¹ s⁻¹ | 1960 ± 210 µM | 0.024 ± 0.008 s⁻¹ | 13 ± 5 M⁻¹ s⁻¹
3 | B3 | 700 ± 100 µM | 119 ± 13.4 s⁻¹ | 171000 ± 5650 M⁻¹ s⁻¹ | 960 ± 850 µM | 0.045 ± 0.025 s⁻¹ | 75 ± 54 M⁻¹ s⁻¹
4 | B4 | 1520 ± 80 µM | 96.3 ± 4.55 s⁻¹ | 63600 ± 3330 M⁻¹ s⁻¹ | 1720 ± 540 µM | 0.035 ± 0.009 s⁻¹ | 21 ± 2 M⁻¹ s⁻¹
